From patent US20240228562A1 (Pieris, published 2024)

T1: recombinant human CTGF protein (R&D Systems, SEQ ID NO: 79) (human, UniProt P29279 27-349)
T1 construct: Bought; also called human CTGF/CNN2; huCTGF
T1 sequence: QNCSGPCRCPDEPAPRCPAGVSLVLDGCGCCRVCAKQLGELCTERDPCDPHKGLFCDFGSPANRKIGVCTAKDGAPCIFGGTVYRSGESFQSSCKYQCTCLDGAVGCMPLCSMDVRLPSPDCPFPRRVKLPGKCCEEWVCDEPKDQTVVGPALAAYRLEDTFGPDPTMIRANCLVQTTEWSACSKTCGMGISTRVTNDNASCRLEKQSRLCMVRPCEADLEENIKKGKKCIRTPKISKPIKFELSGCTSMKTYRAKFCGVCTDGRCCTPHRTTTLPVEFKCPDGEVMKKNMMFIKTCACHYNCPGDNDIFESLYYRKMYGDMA


Target: T1, recombinant human CTGF protein (R&D …)
Assay: HTRF, 1 nM biotinylated human CTGF
Method: Binding of some fusion proteins was tested by a Homogeneous Time Resolved Fluorescence (HTRF assay). In detail, 1 nM of biotinylated human CTGF (R&D Systems) was incubated for 1 h with a titration of some lipocalins starting at 5 nM in 384 Flat Bottom White Polystyrol microtiter plate (Greiner). Samples were diluted in PBS containing 0.1% Tween 20 and 2% BSA. As donor, Streptavidin-Terbium at a concentration of 0,006 μg/mL was used, the acceptor was 0.2 μg/mL anti-His-d2 (both CisBio). After another 1 h of incubation, the fluorescence intensity of the donor and acceptor on the plate was read using a fluorescence microplate reader M1000 (Tecan) with the standard settings recommended by CisBio. The calculated ratio of signals was used for the curve fitting performed in GraphPad Prism 7 software.

Binder	EC50 [pM]
fusion protein of SEQ ID NO: 63 (designed binder, not shown: C-terminal His-tag) QDSTSDLIPAPPLSKVPLQQNFQDNQFQGKWYVVGRAGNNQLREDKSPPKMWATIYELKEDKSYDVTHVHFSTKKCRYIIDTFVPGSQPGEFTAGAIKSGPGLTSPLVRVVSTNYNQHAMVFFKWVTQNREWFTITLYGRTKELTSELKENFIRFSKSLGLPENHIVFPVPIDQCIDGGGGGSGGGGSGGGGSQDSTSDLIPAPPLSKVPLQQNFQDNQFQGKWYVVGLAGNAILREDKQPAKMFATIYELKEDKSYDVTSVRFEAKSCKYTIKTFVPGSQPGEFTAGYIKSAPGQTSTLVRVVSTNYNQHAMVFFKHVTQNREIFVITLYGRTKELTSELKENFIRFSKSLGLPENHIVFPVPIDQCIDG	580
fusion protein of SEQ ID NO: 69 (designed binder, not shown: C-terminal His-tag) QDSTSDLIPAPPLSKVPLQQNFQDNQFQGKWYVVGLAGNAILREDKQPAKMFATIYELKEDKSYDVTSVRFEAKSCSYTSKTFVPGSQPGEFTAGNIKSAPGQTSTLVRVVSTNYNQHAMVFFKHVSQNRETFVITLYGRTKELTSELKENFIRFSKSLGLPENHIVFPVPIDQCIDGGGGGSGGGGSGGGGSQDSTSDLIPAPPLSKVPLQQNFQDNQFQGKWYVVGLAGNYRLREDKDPSKMGATIYELKEDKSYDVTQVQFDDKKCLYVIETFVPGSQPGEFTLGAIKSYPGLTSQLVRVVSTNYNQHAMVFVKKVWPNLEYFQIVLYGRTKELTSELKENFIRFSKSLGLPENHIVFPVPIDQCIDG	650
fusion protein of SEQ ID NO: 75 (designed binder, not shown: C-terminal His-tag) QDSTSDLIPAPPLSKVPLQQNFQDNQFQGKWYVVGLAGNAILREDKQPAKMFATIYELKEDKSYDVTSVRFEAKSCKYTIKTFVPGSQPGEFTAGYIKSAPGQTSTLVRVVSTNYNQHAMVFFKHVTQNREIFVITLYGRTKELTSELKENFIRFSKSLGLPENHIVFPVPIDQCIDGGGGGSGGGGSGGGGSQDSTSDLIPAPPLSKVPLQQNFQDNQFQGKWYVVGLAGNYRLREDKDPSKMGATIYELKEDKSYDVTQVQFDDKKCLYVIETFVPGSQPGEFTLGAIKSYPGLTSQLVRVVSTNYNQHAMVFVKKVWPNLEYFQIVLYGRTKELTSELKENFIRFSKSLGLPENHIVFPVPIDQCIDG	700

Further lines, results first:

EC50 [pM]	Binder
580	fusion protein of SEQ ID NO: 64 (designed binder, not shown: C-terminal His-tag) QDSTSDLIPAPPLSKVPLQQNFQDNQFQGKWYVVGLAGNYRLREDKDPSKMGATIYELKEDKSYDVTQVQFDDKKCLYVIETFVPGSQPGEFTLGAIKSYPGLTSQLVRVVSTNYNQHAMVFVKKVWPNLEYFQIVLYGRTKELTSELKENFIRFSKSLGLPENHIVFPVPIDQCIDGGGGGSGGGGSGGGGSQDSTSDLIPAPPLSKVPLQQNFQDNQFQGKWYVVGLAGNAILREDKQPAKMFATIYELKEDKSYDVTSVRFEAKSCKYTIKTFVPGSQPGEFTAGYIKSAPGQTSTLVRVVSTNYNQHAMVFFKHVTQNREIFVITLYGRTKELTSELKENFIRFSKSLGLPENHIVFPVPIDQCIDG
720	fusion protein of SEQ ID NO: 70 (designed binder, not shown: C-terminal His-tag) QDSTSDLIPAPPLSKVPLQQNFQDNQFQGKWYVVGWAGNVKLREDKQPQKMSATIYELKEDKSYDVTEVVFEQKKCHYIIKTFVPGSQPGEFTAGDIKSPPGYTSSLVRVVSTNYNQHAMVFFKKVSQNREFFWITLYGRTKELTSELKENFIRFSKSLGLPENHIVFPVPIDQCIDGGGGGSGGGGSGGGGSQDSTSDLIPAPPLSKVPLQQNFQDNQFQGKWYVVGLAGNAILREDKQPAKMFATIYELKEDKSYDVTSVRFEAKSCKYTIKTFVPGSQPGEFTAGYIKSAPGQTSTLVRVVSTNYNQHAMVFFKHVTQNREIFVITLYGRTKELTSELKENFIRFSKSLGLPENHIVFPVPIDQCIDG
680	fusion protein of SEQ ID NO: 72 (designed binder, not shown: C-terminal His-tag) QDSTSDLIPAPPLSKVPLQQNFQDNQFQGKWYVVGLAGNAILREDKYPAKMFATIYELKEDKSYDVTSVRFENKSCVYTIKTFVPGSQPGEFTTGNIKSAPGQTSTLVRVVSTNYNQHAMVFFKHVSQNREFFVITLYGRTKELTSELKENFIRFSKSLGLPENHIVFPVPIDQCIDGGGGGSGGGGSGGGGSQDSTSDLIPAPPLSKVPLQQNFQDNQFQGKWYVVGLAGNYRLREDKDPSKMGATIYELKEDKSYDVTQVQFDDKKCLYVIETFVPGSQPGEFTLGAIKSYPGLTSQLVRVVSTNYNQHAMVFVKKVWPNLEYFQIVLYGRTKELTSELKENFIRFSKSLGLPENHIVFPVPIDQCIDG

Target: T1, recombinant human CTGF protein (R&D …)
Assay: ELISA, coated human CTGF
Method: Binding of fusion proteins was tested by an ELISA assay. In detail, a 384-well plate suitable for fluorescence measurements (Greiner FLUOTRAC™ 600, black flat bottom, high-binding) was coated with 20 μl of human CTGF (R&D Systems) at a concentration of 1 μg/ml in PBS over night at 4° C. After washing with PBS with 0.05% Tween 20, wells were blocked with 100 μl blocking buffer containing 0.1% Tween 20 and 2% BSA (PBS-T/BSA) for 1 h at room temperature. 20 μl of serially diluted muteins were incubated in PBS-T/BSA for 1 h at room temperature (RT).
The residual supernatants were discarded and 20 μl HRP-labeled anti-NGAL or anti-His-Tag antibody was added at a predetermined optimal concentration in PBS-T/BSA and incubated for 1 h at RT. After washing, 20 μl fluorogenic HRP substrate (QuantaBlu, Thermo) was added to each well, and the reaction was allowed to proceed for 2 to 60 minutes. The fluorescence intensity of every well on the plate was read using a fluorescence microplate reader (Tecan). Curve fitting was performed using GraphPad Prism 7 or 8 software.

EC50 [pM]	Binder
610	fusion protein of SEQ ID NO: 65 (designed binder) QDSTSDLIPAPPLSKVPLQQNFQDNQFHGKWYVVGRAGNNRLREDKDPPKMWATIYELKEDKSYDVTHVHFMTKKCRYIIDTFVPGSQPGEFTLGAIKSGPGMTSPLVRIVSTNYNQHAMVFFKWVNQNREWFTITLYGRTKELTSELKENFIRFSKSLGLPENHIVFPVPIDQCIDGGGGGSGGGGSGGGGSQDSTSDLIPAPPLSKVPLQQNFQDNQFHGKWYVVGLAGNKILRIDKQPAKMFATIYELKEDKSYDVTSVRFEARSCSYTIKTFVPGSQPGEFTAGNIKSAPGQTSTLVRVVSTNYNQHAMVFFKHVSQNRETFVITLYGRTKELTSELKENFIRFSKSLGLPENHIVFPVPIDQCIDG
1200	fusion protein of SEQ ID NO: 66 (designed binder) QDSTSDLIPAPPLSKVPLQQNFQDNQFHGKWYVVGLAGNKILRIDKQPAKMFATIYELKEDKSYDVTSVRFEARSCSYTIKTFVPGSQPGEFTAGNIKSAPGQTSTLVRVVSTNYNQHAMVFFKHVSQNRETFVITLYGRTKELTSELKENFIRFSKSLGLPENHIVFPVPIDQCIDGGGGGSGGGGSGGGGSQDSTSDLIPAPPLSKVPLQQNFQDNQFHGKWYVVGRAGNNRLREDKDPPKMWATIYELKEDKSYDVTHVHFMTKKCRYIIDTFVPGSQPGEFTLGAIKSGPGMTSPLVRIVSTNYNQHAMVFFKWVNQNREWFTITLYGRTKELTSELKENFIRFSKSLGLPENHIVFPVPIDQCIDG
1000	fusion protein of SEQ ID NO: 67 (designed binder) QDSTSDLIPAPPLSKVPLQQNFQDNQFHGKWYVVGLAGNKILRIDKQPAKMFATIYELKEDKSYDVTSVRFEARSCSYTIKTFVPGSQPGEFTAGNIKSAPGQTSTLVRVVSTNYNQHAMVFFKHVSQNRETFVITLYGRTKELTSELKENFIRFSKSLGLPENHIVFPVPIDQCIDGGGGGSGGGGSGGGGSQDSTSDLIPAPPLSKVPLQQNFQDNQFHGKWYVVGWAGNIKLREDKDPFKMSATIYELKEDKSYDVTEVVFEQKKCHYIIKTFVPGSQPGEFTLGDIKSPPGETSSLVRVVSTNYNQHAMVFFKKVFQNREFFWITLYGRTKELTSELKENFIRFSKSLGLPENHIVFPVPIDQCIDG
